Test results as given in US20260166139A1.
Where “and” joins values, the source holds several entries; their conditions need not be identical. Equal values may be shown once.

How the values were obtained:
human CTLA4 (human) [1] = molecular target: human CTLA4 (human) (UniProt P16410); assay: ELISA, coat human CTLA4 0.5 ug/ml; antibody 1:27 (start 1 ug/ml)
CTLA4-mFc [2] = assay: competition ELISA, coat B7/1-hFc 0.2 ug/ml (competitor), CTLA4-mFc 0.3 ug/ml detected; antibody 1:27 (start 3 ug/ml)
CTLA4-mFc [3] = assay: competitive ELISA, CTLA4-mFc coated, competitor B7/2-His; antibody 1.5 µg/ml diluted 1:9
human CTLA4 (human) [4] = molecular target: human CTLA4 (human) (UniProt P16410); assay: ELISA, coat CTLA4 0.5 ug/ml; antibody 1 ug/ml
[5] = molecular target: monkey CTLA4-hFc (monkey); assay: ELISA, coat monkey CTLA4-hFc 0.25 ug/ml; antibody 0 (blank)
CTLA4-mFc [6] = assay: competitive ELISA, CTLA4-mFc coated, competitor B7/2-His; antibody 3 µg/ml
CTLA4-mFc [7] = assay: competitive ELISA, competitor B7-1; control run with 8D2H1L1
CTLA4-mFc [8] = assay: competitive ELISA, B7/1-hFc coated (competitor), CTLA4-mFc added; antibody 5 µg/ml diluted 1:27
[9] = molecular target: monkey CTLA4-hFc (monkey); assay: ELISA on coated CTLA4, source Monkey (row of 8D2H3L3)
CTLA4-mFc [10] = assay: competition ELISA, coat B7/1-hFc 0.2 ug/ml (competitor), CTLA4-mFc 0.3 ug/ml detected; antibody 1:9 (start 3 ug/ml)
CTLA4-mFc [11] = assay: competitive ELISA, competitor B7-1; control run with 8D2H2L17
CTLA4-mFc [12] = assay: competitive ELISA, CTLA4-mFc coated, competitor B7/2-His; antibody 1 µg/ml diluted 1:27
CTLA4-mFc [13] = assay: competitive ELISA, B7/1-hFc coated (competitor), CTLA4-mFc added; antibody 5 µg/ml diluted 1:243
CTLA4-mFc [14] = assay: competitive ELISA, competitor B7-2; control run with 8D2H2L17
human CTLA4 (human) [15] = molecular target: human CTLA4 (human) (UniProt P16410); assay: ELISA on coated CTLA4, source Human (row of 8D2H3L3)
murine CTLA4 (murine) [16] = molecular target: murine CTLA4 (murine) (UniProt P09793); assay: ELISA on coated CTLA4, source Mouse (row of 8D2(Re))
CTLA4-mFc [17] = assay: competitive ELISA, B7/1-hFc coated (competitor), CTLA4-mFc added; antibody 5 µg/ml diluted 1:3
CTLA4-mFc [18] = assay: competitive ELISA, CTLA4-mFc coated, competitor B7/2-His; antibody 3 µg/ml diluted 1:243
murine CTLA4 (murine) [19] = molecular target: murine CTLA4 (murine) (UniProt P09793); assay: ELISA on coated CTLA4, source Mouse (row of 8D2H1L1)
human CTLA4 (human) [20] = molecular target: human CTLA4 (human) (UniProt P16410); assay: ELISA, coat human CTLA4 0.5 ug/ml; antibody 1:81 (start 1 ug/ml)
human CTLA4 (human) [21] = molecular target: human CTLA4 (human) (UniProt P16410); assay: ELISA, coat human CTLA4 0.5 ug/ml; antibody 1:3 (start 1 ug/ml)
CTLA4-mFc [22] = assay: competitive ELISA, B7/1-hFc coated (competitor), CTLA4-mFc added; antibody 5 µg/ml diluted 1:3; remark: listed apart in the source
human CTLA4 (human) [23] = molecular target: human CTLA4 (human) (UniProt P16410); assay: ELISA, coat human CTLA4 0.5 ug/ml; antibody 0 (blank)
CTLA4-mFc [24] = assay: competitive ELISA, B7/1-hFc coated (competitor), CTLA4-mFc added; antibody 5 µg/ml
CTLA4-mFc [25] = assay: competition ELISA, coat B7/1-hFc 0.2 ug/ml (competitor), CTLA4-mFc 0.3 ug/ml detected; antibody 1:729 (start 3 ug/ml)
human CTLA4 (human) [26] = molecular target: human CTLA4 (human) (UniProt P16410); assay: ELISA, coat human CTLA4 0.5 ug/ml; antibody 1 ug/ml
CTLA4-mFc [27] = assay: competitive ELISA, B7/1-hFc coated (competitor), CTLA4-mFc added; antibody 5 µg/ml diluted 1:81
human CTLA4 (human) [28] = molecular target: human CTLA4 (human) (UniProt P16410); assay: ELISA, coat CTLA4 0.5 ug/ml; antibody 1:243 (start 1 ug/ml)
CTLA4-mFc [29] = assay: competition ELISA, coat B7/1-hFc 0.2 ug/ml (competitor), CTLA4-mFc 0.3 ug/ml detected; antibody 0 (no antibody)
murine CTLA4 (murine) [30] = molecular target: murine CTLA4 (murine) (UniProt P09793); assay: ELISA on coated CTLA4, source Mouse (row of 8D2)
human CTLA4 (human) [31] = molecular target: human CTLA4 (human) (UniProt P16410); assay: ELISA, coat human CTLA4 0.5 ug/ml; antibody 1:243 (start 1 ug/ml)
CTLA4-mFc [32] = assay: competitive ELISA, CTLA4-mFc coated, competitor B7/2-His; antibody 0 (no antibody)
CTLA4-mFc [33] = assay: competitive ELISA, B7/1-hFc coated (competitor), CTLA4-mFc added; antibody 0 (no antibody)
CTLA4-mFc [34] = assay: competitive ELISA, CTLA4-mFc coated, competitor B7/2-His; antibody 1.5 µg/ml diluted 1:27
human CTLA4 (human) [35] = molecular target: human CTLA4 (human) (UniProt P16410); assay: ELISA, coat human CTLA4 0.5 ug/ml; antibody 1:729 (start 1 ug/ml)
CTLA4-mFc [36] = assay: competitive ELISA, competitor B7-1; control run with 8D2H3L3
CTLA4-mFc [37] = assay: competitive ELISA, CTLA4-mFc coated, competitor B7/2-His; antibody 1 µg/ml diluted 1:729
CTLA4-mFc [38] = assay: competitive ELISA, competitor B7-2; control run with 8D2H2L15

Sequence of CTLA4-mFc (chain, as listed by the source limits assumed): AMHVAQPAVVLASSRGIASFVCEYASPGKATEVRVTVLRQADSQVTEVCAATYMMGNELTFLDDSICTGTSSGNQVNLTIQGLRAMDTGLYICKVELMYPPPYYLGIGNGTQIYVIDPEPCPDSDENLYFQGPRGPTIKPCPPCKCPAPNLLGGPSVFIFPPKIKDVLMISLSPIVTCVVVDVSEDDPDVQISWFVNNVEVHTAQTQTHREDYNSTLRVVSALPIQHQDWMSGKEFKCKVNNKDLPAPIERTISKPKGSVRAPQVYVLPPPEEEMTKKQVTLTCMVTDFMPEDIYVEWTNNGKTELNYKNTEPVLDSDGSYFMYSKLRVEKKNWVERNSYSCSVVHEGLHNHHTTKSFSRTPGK
Sequence of human CTLA4 (human) (P16410 36-161 limits assumed): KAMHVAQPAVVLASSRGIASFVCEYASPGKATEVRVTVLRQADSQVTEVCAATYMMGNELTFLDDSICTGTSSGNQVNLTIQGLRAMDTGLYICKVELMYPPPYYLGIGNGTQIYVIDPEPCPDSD
Sequence of control antibody 11.2.1 (VH): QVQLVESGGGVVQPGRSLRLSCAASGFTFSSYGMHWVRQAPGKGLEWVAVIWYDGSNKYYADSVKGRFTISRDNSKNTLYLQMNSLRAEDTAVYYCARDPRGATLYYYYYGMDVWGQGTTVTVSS
Sequence of control antibody 11.2.1 (VL): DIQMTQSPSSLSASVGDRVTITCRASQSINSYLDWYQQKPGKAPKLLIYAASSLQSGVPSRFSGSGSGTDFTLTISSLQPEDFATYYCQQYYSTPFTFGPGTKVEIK

control antibody 11.2.1
absorbance at 450 nm (human CTLA4 (human) [1]): 0.893 and 0.682 | absorbance at 450 nm (CTLA4-mFc [2]): 0.597 and 0.579 | absorbance at 450 nm (CTLA4-mFc [3]): 0.479 and 0.412 | absorbance at 450 nm (human CTLA4 (human) [4]): 2.75 and 2.69 | absorbance at 450 nm [5]: 0.048 and 0.051 | absorbance at 450 nm (CTLA4-mFc [6]): 0.492 and 0.442 | EC50 (CTLA4-mFc [7]): 1.69 nM | absorbance at 450 nm (CTLA4-mFc [8]): 0.488 and 0.369 | EC50 [9]: 0.075 nM | absorbance at 450 nm (CTLA4-mFc [10]): 0.381 and 0.485 | EC50 (CTLA4-mFc [11]): 2.61 nM | absorbance at 450 nm (CTLA4-mFc [12]): 0.57 | absorbance at 450 nm (CTLA4-mFc [13]): 0.755 and 0.9 | EC50 (CTLA4-mFc [14]): 0.349 nM | EC50 (human CTLA4 (human) [15]): 0.09 nM | EC50 (murine CTLA4 (murine) [16]): 0.023 nM | absorbance at 450 nm (CTLA4-mFc [17]): 0.09 and 0.097 | absorbance at 450 nm (CTLA4-mFc [18]): 1.24 and 1.21 | EC50 (murine CTLA4 (murine) [19]): 0.023 nM | absorbance at 450 nm (human CTLA4 (human) [20]): 0.499 and 0.426 | absorbance at 450 nm (human CTLA4 (human) [21]): 1.82 and 2.05 | absorbance at 450 nm (CTLA4-mFc [22]): 0.08 | absorbance at 450 nm (human CTLA4 (human) [23]): 0.072 and 0.064 | absorbance at 450 nm (CTLA4-mFc [24]): 0.06 | absorbance at 450 nm (CTLA4-mFc [25]): 0.993 and 0.841 | absorbance at 450 nm (human CTLA4 (human) [26]): 2.21 and 2.15 | absorbance at 450 nm (CTLA4-mFc [27]): 1.17 and 1.2 | absorbance at 450 nm (human CTLA4 (human) [28]): 0.75 and 0.79 | absorbance at 450 nm (CTLA4-mFc [29]): 0.826 and 0.55 | EC50 (murine CTLA4 (murine) [30]): 0.023 nM | absorbance at 450 nm (human CTLA4 (human) [31]): 0.223 and 0.219 | absorbance at 450 nm (CTLA4-mFc [32]): 0.91 and 0.8 | absorbance at 450 nm (CTLA4-mFc [33]): 1.28 and 1.3 | absorbance at 450 nm (CTLA4-mFc [34]): 0.622 and 0.529 | absorbance at 450 nm (human CTLA4 (human) [35]): 0.253 and 0.263 | EC50 (CTLA4-mFc [36]): 1.07 nM | absorbance at 450 nm (CTLA4-mFc [37]): 0.87 and 0.85 | EC50 (CTLA4-mFc [38]): 0.349 nM
